Data from paper PMC11908248 (bioRxiv, 2025).

B1: UNC-116-sfGFP-StrepII (natural protein, C. elegans, UniProt P34540 1-815, looked up)
chain: MEPRTDGAECGVQVFCRIRPLNKTEEKNADRFLPKFPSEDSISLGGKVYVFDKVFKPNTTQEQVYKGAAYHIVQDVLSGYNGTVFAYGQTSSGKTHTMEGVIGDNGLSGIIPRIVADIFNHIYSMDENLQFHIKVSYYEIYNEKIRDLLDPEKVNLSIHEDKNRVPYVKGATERFVGGPDEVLQAIEDGKSNRMVAVTNMNEHSSRSHSVFLITVKQEHQTTKKQLTGKLYLVDLAGSEKVSKTGAQGTVLEEAKNINKSLTALGIVISALAEGTKSHVPYRDSKLTRILQESLGGNSRTTVIICASPSHFNEAETKSTLLFGARAKTIKNVVQINEELTAEEWKRRYEKEKEKNTRLAALLQAAALELSRWRAGESVSEVEWVNLSDSAQMAVSEVSGGSTPLMERSIAPAPPMLTSTTGPITDEEKKKYEEERVKLYQQLDEKDDEIQKVSQELEKLRQQVLLQEEALGTMRENEELIREENNRFQKEAEDKQQEGKEMMTALEEIAVNLDVRQAECEKLKRELEVVQEDNQSLEDRMNQATSLLNAHLDECGPKIRHFKEGIYNVIREFNIADIASQNDQLPDHDLLNHVRIGVSKLFSEYSAAKESSTAAEHDAEAKLAADVARVESGQDAGRMKQLLVKDQAAKEIKPLTDRVNMELTTLKNLKKEFMRVLVARCQANQDTEGEDSLSGPAQKQRIQFLENNLDKLTKVHKQLVRDNADLRVELPKMEARLRGREDRIKILETALRDSKQRSQAERKKYQQEVERIKEAVRQRNMRRMNAPQIVKPIRPGQVYTSPSAGMSQGAPNGSNA

Legend:
GST-KLC-2 (C. elegans) [1] = target: GST-KLC-2 (C. elegans) (UniProt P46822); experiment: mass photometry
GST-KLC-2 (C. elegans) [2] = target: GST-KLC-2 (C. elegans) (UniProt P46822); experiment: BLI
[3] = target: C. elegans kinesin-1 heterotetramer (UNC-116-sfGFP-StrepII + KLC-2-6xHis) (C. elegans) (UniProt P34540); experiment: mass photometry
[4] = target: UNC-116-sfGFP-StrepII (C. elegans) (UniProt P34540); experiment: mass photometry
mass photometry = target: the molecule itself; experiment: mass photometry
UNC-116-sfGFP-StrepII = target: B1; experiment: mass photometry

Chain of GST-KLC-2 (C. elegans) (P46822 whole entry): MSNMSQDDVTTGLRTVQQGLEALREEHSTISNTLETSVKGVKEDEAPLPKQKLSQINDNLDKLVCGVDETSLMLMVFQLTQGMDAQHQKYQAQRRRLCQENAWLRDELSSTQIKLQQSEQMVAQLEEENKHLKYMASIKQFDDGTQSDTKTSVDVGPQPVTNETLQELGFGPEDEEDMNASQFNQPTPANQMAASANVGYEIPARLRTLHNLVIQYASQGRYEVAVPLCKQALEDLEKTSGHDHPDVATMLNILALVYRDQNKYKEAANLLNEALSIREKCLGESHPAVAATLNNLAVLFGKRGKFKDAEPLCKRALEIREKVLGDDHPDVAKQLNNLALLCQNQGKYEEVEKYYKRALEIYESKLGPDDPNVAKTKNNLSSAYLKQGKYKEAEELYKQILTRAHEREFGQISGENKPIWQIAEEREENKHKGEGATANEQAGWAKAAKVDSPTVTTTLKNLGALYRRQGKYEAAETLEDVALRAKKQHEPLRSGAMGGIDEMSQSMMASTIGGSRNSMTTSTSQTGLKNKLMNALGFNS

UNC-83c-mScarlet-StrepII (domain or fragment)
percent of particles in the peak of the complex (GST-KLC-2 (C. elegans) [1]): 97 % peak
stoichiometry N (UNC-83c monomer per KLC-2 monomer) (GST-KLC-2 (C. elegans) [1]): 1

UNC-83a-mScarlet-StrepII (from UniProt Q23064 1-1041) (domain or fragment)
Kd (GST-KLC-2 (C. elegans) [2]): > 1000 nM
percent of particles in the peak of the complex [3]: 97 % peak
stoichiometry N (UNC-83a monomer per kinesin-1 tetramer) [3]: 1
percent of particles in the peak of the complex [4]: 99 % peak
stoichiometry N (UNC-83a monomer per UNC-116 dimer) [4]: 1

B1
stoichiometry N (mass photometry): 2

B2: UNC-83a^N-term-mScarlet-StrepII (domain or fragment, C. elegans, UniProt Q23064 1-305, looked up)
chain: MDVMDSFSEVEMPNDISSEDHLLKVIESSAEEVDIFLENCSSLYNLILDSLHNLTSKTISCECLDEMTSTLEKSAKKILAERPEAENSVLLRLNTICCAMDQLRVQHNSRMMSGADSDTASSARSSTSSSTGEMRLWLHEVERRLEINEKRIRVEPNLQLLLSDQQALQLEIQHEGQLLVNRLNKQIKDDHDSDSSEEEKRKTCVDAIRKRWHTIYLNSLSLVCRIEELINHQQASEDSESDPDLVGPPIKRARIRTVGHLTASDTEESEADEEDRHSQTETVVTEDDNVLPFAENEYESIMDGR
stoichiometry N (UNC-116-sfGFP-StrepII): 1 UNC-83a^N-term monomer per UNC-116 dimer
stoichiometry N (mass photometry): 2
